Substitutions are numbered along the chain they refer to. Names and notes keep the numbering of the source. Read-outs that look alike come from different tables or passages of the source.
Key:
cryo-EM structure [1] = target: the molecule itself; experiment: cryo-EM structure
cryo-EM structure [2] = target: the molecule itself; experiment: cryo-EM structure; remark: listed apart in the source

B1: Campylobacter jejuni MotB(Δ41-60) (natural protein, UniProt Q0PBH3 1-247, looked up)
chain: MAKKHKCPECPAGEKWAVPYADFLSLLLALFIALWAISKTTQTVKEESKTQEKYKGAAKEESDELKSLKQMTMTQQETIKRLQAALDQSDNQVALNLPSKVEFERGSAQIVSADIQDYLKRMAELTTYLPPQAKIEIRGYTDNSDSIIRSYELAYQRAENVLKYFIEGGANLKNISIKSYGLNNPINGNPQTLENNRVEIYFKVDTADTSTQKSVLELINKIGTKAP
B1: binds (cryo-EM structure [1]).

B2: Campylobacter jejuni MotB(Δ41-60, D22N) (natural protein, UniProt Q0PBH3 1-247, looked up)
chain: B1 chain with D22N
B2: binds (cryo-EM structure [1]).

B3: Campylobacter jejuni MotB (natural protein, UniProt Q0PBH3 1-247, looked up)
chain: MAKKHKCPECPAGEKWAVPYADFLSLLLALFIALWAISKTNPAKVEALKTEFVKIFDYTSTQTVKEESKTQEKYKGAAKEESDELKSLKQMTMTQQETIKRLQAALDQSDNQVALNLPSKVEFERGSAQIVSADIQDYLKRMAELTTYLPPQAKIEIRGYTDNSDSIIRSYELAYQRAENVLKYFIEGGANLKNISIKSYGLNNPINGNPQTLENNRVEIYFKVDTADTSTQKSVLELINKIGTKAP
B3 was tested, and the “stoichiometry N” value (cryo-EM structure [1]) was 2.

B4: Vibrio alginolyticus PomB (natural protein, UniProt O06874 1-315, looked up)
chain: MDDEDNKCDCPPPGLPLWMGTFADLMSLLMCFFVLLLSFSEMDVLKFKQIAGSMKFAFGVQNQLEVKDIPKGTSIIAQEFRPGRPEPTPIDVIMQQTMDITQQTLEFHEGESDRAGGTKRDEGKLTGGQSPATSTQNNESAEADMQQQQSKEMSQEMETLMESIKKALEREIEQGAIEVENLGQQIVIRMREKGAFPEGSAFLQPKFRPLVRQIAELVKDVPGIVRVSGHTDNRPLDSELYRSNWDLSSQRAVSVAQEMEKVRGFSHQRLRVRGMADTEPLLPNDSDDNRALNRRVEISIMQGEPLYSEEVPVIQ
For B4, the “stoichiometry N” value (cryo-EM structure [2]) was 2.

— article doi:10.1101/2020.05.15.096610 (bioRxiv, 2020)
